B1: SLC6A17 (parent)
chain: KAVEEELDAEDRPAWNSKLQYILA

Variants of: B1
Assay: protein stability index of a GFP-peptide fusion (GPS, HEK-293T) (PSI 1-6); higher = more stable
Conditions: c terminus: a fixed tail appended
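Further: lentivirally expressed fusions sorted by FACS into six bins by GFP to DsRed ratio, PSI derived from sequencing read proportions per bin multiplied by bin number.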

In order of rising protein stability index:
1. KAVEEELDAEYRPAWNSKLQYILA  1.42
2. KAVEEELDAEDRIAWNSKLQYILA  1.42
3. KAVEEELDAEDRAAWNSKLQYILA  1.54
4. KAVEEELDAEDRPAWNSKLWYILA  1.56
5. KAVEEELDAEDRPAWNSKLIYILA  1.57
6. KAVEEELDAEDRPAWNSVLQYILA  1.64
7. KAVEEELDAQDRPAWNSKLQYILA  1.67
8. KAVEEELDAEMRPAWNSKLQYILA  1.69
9. KAVEEELDAWDRPAWNSKLQYILA  1.76
10. KAVEEELDAEDFPAWNSKLQYILA  1.76
11. KAVEEELDAELRPAWNSKLQYILA  1.79
12. KAVEEELDAEDRPAWNWKLQYILA  1.82
13. KAVEEELDAEDRPAWNIKLQYILA  1.83
14. KAVEEELDAEDRLAWNSKLQYILA  1.85
15. KAVEEELDAEDRPAWNSKLLYILA  1.88
16. KAVEEELDAVDRPAWNSKLQYILA  1.9
17. KAVEEELDAEDRPAWNSKLFYILA  1.9
18. KAVEEELDAYDRPAWNSKLQYILA  1.93
19. KAVEEELDAEDRPAWNSLLQYILA  1.98
20. KAVEEELDAESRPAWNSKLQYILA  1.98
21. KAVEEELDAECRPAWNSKLQYILA  1.99
22. KAVEEELDAEDRPAWNCKLQYILA  1.99
23. KAVEEELDAEDRPAWNLKLQYILA  1.99
24. KAVEEELDAEDRPLWNSKLQYILA  1.99
25. KAVEEELDAEVRPAWNSKLQYILA  2
26. KAVEEELDAEDRPYWNSKLQYILA  2
27. KAVEEELDAEPRPAWNSKLQYILA  2.02
28. KAVEEELDAEDRPAWWSKLQYILA  2.05
29. KAVEEELDAEDRPAWISKLQYILA  2.05
30. KAVEEELDAEDRPAWLSKLQYILA  2.06
31. KAVEEELDAEDRPAWNSKLAYILA  2.06
32. KAVEEELDAEDRPAWTSKLQYILA  2.07
33. KAVEEELDAEFRPAWNSKLQYILA  2.07
34. KAVEEELDAEDRPAWCSKLQYILA  2.08
35. KAVEEELDAEDRPAWYSKLQYILA  2.09
36. KAVEEELDAEDRPAWQSKLQYILA  2.1
37. KAVEEELDAEDRPMWNSKLQYILA  2.1
38. KAVEEELDAEQRPAWNSKLQYILA  2.12
39. KAVEEELDAEDRPAWNSILQYILA  2.13
40. KAVEEELDAEDRPAWNSKLVYILA  2.13
41. KAVEEELDAEDRPAWNSKLCYILA  2.13
42. KAVEEELDAEDRPAWFSKLQYILA  2.14
43. KAVEEELDAEDRPAWNSKLMYILA  2.16
44. KAVEEELDAEWRPAWNSKLQYILA  2.16
45. KAVEEELDAEDRPAWNYKLQYILA  2.16
46. KAVEEELDAEDRPAWNSFLQYILA  2.17
47. KAVEEELDAEDRPFWNSKLQYILA  2.18
48. KAVEEELDAEDRPAWNKKLQYILA  2.19
49. KAVEEELDAEDWPAWNSKLQYILA  2.19
50. KAVEEELDAEDMPAWNSKLQYILA  2.19
51. KAVEEELDAEDRPAVNSKLQYILA  2.2
52. KAVEEELDAEDRPNWNSKLQYILA  2.2
53. KAVEEELDAEDYPAWNSKLQYILA  2.2
54. KAVEEELDAEDRHAWNSKLQYILA  2.21
55. KAVEEELDAEDRPAWNHKLQYILA  2.23
56. KAVEEELDAEDRPAWASKLQYILA  2.25
57. KAVEEELDAEDRPAWNSKLTYILA  2.25
58. KAVEEELDAEDRPAWNTKLQYILA  2.25
59. KAVEEELDAEDRPAWNSMLQYILA  2.27
60. KAVEEELDAEDRSAWNSKLQYILA  2.27
61. KAVEEELDAEDRPAWNSKVQYILA  2.28
62. KAVEEELDAENRPAWNSKLQYILA  2.28
63. KAVEEELDAEDRCAWNSKLQYILA  2.28
64. KAVEEELDAEDRPRWNSKLQYILA  2.3
65. KAVEEELDAEDRNAWNSKLQYILA  2.31
66. KAVEEELDAEDRPAWNSKLGYILA  2.32
67. KAVEEELDAEDRPAWNQKLQYILA  2.32
68. KAVEEELDAEDGPAWNSKLQYILA  2.32
69. KAVEEELDAEDRPAWNMKLQYILA  2.33
70. KAVEEELDAEDRPGWNSKLQYILA  2.35
71. KAVEEELDAEDRPAWMSKLQYILA  2.37
72. KAVEEELDAEDRPVWNSKLQYILA  2.38
73. KAVEEELDAEDRPAWNSKLYYILA  2.4
74. KAVEEELDAEDRPQWNSKLQYILA  2.4
75. KAVEEELDAEDREAWNSKLQYILA  2.41
76. KAVEEELDAEDHPAWNSKLQYILA  2.41
77. KAVEEELDATDRPAWNSKLQYILA  2.44
78. KAVEEELDAEDRRAWNSKLQYILA  2.44
79. KAVEEELDAEDPPAWNSKLQYILA  2.44
80. KAVEEELDAEDLPAWNSKLQYILA  2.45
81. KAVEEELDAEDRPAWNVKLQYILA  2.46
82. KAVEEELDAEDRPPWNSKLQYILA  2.46
83. KAVEEELDAEDIPAWNSKLQYILA  2.47
84. KAVEEELDAEDRPAWNSKWQYILA  2.48
85. KAVEEELDAEDRPAWNFKLQYILA  2.5
86. KAVEEELDAEDRPIWNSKLQYILA  2.5
87. KAVEEELDAEDRPALNSKLQYILA  2.52
88. KAVEEELDAEDRPAWNSKIQYILA  2.52
89. KAVEEELDAEDRPAWNSKYQYILA  2.52
90. KAVEEELDAEDRPAWKSKLQYILA  2.52
91. KAVEEELDAEDRPAWNSWLQYILA  2.53
92. KAVEEELDAEDRPAWNSKLHYILA  2.53
93. KAVEEELDAERRPAWNSKLQYILA  2.54
94. KAVEEELDAEIRPAWNSKLQYILA  2.54
95. KAVEEELDAEDVPAWNSKLQYILA  2.54
96. KAVEEELDAEDRPAWNAKLQYILA  2.55
97. KAVEEELDAEDRKAWNSKLQYILA  2.57
98. KAVEEELDAEDRPHWNSKLQYILA  2.57
99. KAVEEELDAEDRPAWVSKLQYILA  2.58
100. KAVEEELDAEHRPAWNSKLQYILA  2.59
101. KAVEEELDAEDRPKWNSKLQYILA  2.62
102. KAVEEELDAEDRFAWNSKLQYILA  2.63
103. KAVEEELDAETRPAWNSKLQYILA  2.65
104. KAVEEELDAEDRYAWNSKLQYILA  2.65
105. KAVEEELDAEKRPAWNSKLQYILA  2.67
106. KAVEEELDAEDRPAWNSRLQYILA  2.69
107. KAVEEELDAEDRPAWNSHLQYILA  2.7
108. KAVEEELDAEDRPAWNSKLSYILA  2.71
109. KAVEEELDAEDRGAWNSKLQYILA  2.71
110. KAVEEELDAEDRDAWNSKLQYILA  2.72
111. KAVEEELDAEDRPAWNSKSQYILA  2.75
112. KAVEEELDAEDRPAWPSKLQYILA  2.75
113. KAVEEELDAEDRPAWRSKLQYILA  2.75
114. KAVEEELDAEDRPAWNGKLQYILA  2.75
115. KAVEEELDAEDRPAYNSKLQYILA  2.77
116. KAVEEELDAEDRMAWNSKLQYILA  2.79
117. KAVEEELDAEDRPAWNSKMQYILA  2.8
118. KAVEEELDAEDCPAWNSKLQYILA  2.8
119. KAVEEELDAEDRPAWESKLQYILA  2.81
120. KAVEEELDAEDRPAWHSKLQYILA  2.83
121. KAVEEELDARDRPAWNSKLQYILA  2.83
122. KAVEEELDAEDKPAWNSKLQYILA  2.83
123. KAVEEELDAEDRWAWNSKLQYILA  2.88
124. KAVEEELDAEDRPAWNSKLEYILA  2.89
125. KAVEEELDAEDRPAWNSKLNYILA  2.9
126. KAVEEELDAEDRPAWNSKLKYILA  2.92
127. KAVEEELDAEDRPAWNSKFQYILA  2.96
128. KAVEEELDAEDRPAWNPKLQYILA  2.97
129. KAVEEELDAEDNPAWNSKLQYILA  2.97
130. KAVEEELDAEDRPAWSSKLQYILA  3.01
131. KAVEEELDAEDRPAWNSTLQYILA  3.05
132. KAVEEELDAEDRTAWNSKLQYILA  3.06
133. KAVEEELDAEDRPAWNSSLQYILA  3.07
134. KAVEEELDAEARPAWNSKLQYILA  3.08
135. KAVEEELDAEDRPEWNSKLQYILA  3.08
136. KAVEEELDAEDRPAFNSKLQYILA  3.1
137. KAVEEELDAEDRPAWNSYLQYILA  3.15
138. KAVEEELDAEDRPAWNNKLQYILA  3.15
139. KAVEEELDAEDQPAWNSKLQYILA  3.15
140. KAVEEELDAEDRPAWNSALQYILA  3.16
141. KAVEEELDAEDRPAWNDKLQYILA  3.17
142. KAVEEELDAEDRPAWNSCLQYILA  3.19
143. KAVEEELDAEDRPTWNSKLQYILA  3.2
144. KAVEEELDAEDRPAWNSQLQYILA  3.22
145. KAVEEELDAEDRPAWNSKLPYILA  3.25
146. KAVEEELDAEDRPDWNSKLQYILA  3.38
147. KAVEEELDAEDRPAWNSKLRYILA  3.39
148. KAVEEELDAEDRPAWNSKPQYILA  3.4
149. KAVEEELDAEDRPAWNRKLQYILA  3.4
150. KAVEEELDAEDSPAWNSKLQYILA  3.4
151. KAVEEELDAEDRPAWDSKLQYILA  3.45
152. KAVEEELDAEDRPATNSKLQYILA  3.46
153. KAVEEELDAEDAPAWNSKLQYILA  3.54
154. KAVEEELDAEGRPAWNSKLQYILA  3.55
155. KAVEEELDAEDRPAWNSKCQYILA  3.56
156. KAVEEELDAEDRPAWNSKLDYILA  3.56
157. KAVEEELDAEDRPARNSKLQYILA  3.62
158. KAVEEELDAEDRPAWNSKRQYILA  3.63
159. KAVEEELDAEDRPACNSKLQYILA  3.64
160. KAVEEELDAEDRPAPNSKLQYILA  3.68
161. KAVEEELDAEDRPAINSKLQYILA  3.69
162. KAVEEELDAEDRPAWNSKHQYILA  3.69
163. KAVEEELDAEDRPAMNSKLQYILA  3.74
164. KAVEEELDAEDDPAWNSKLQYILA  3.74
165. KAVEEELDAEDRPAWNSELQYILA  3.76
166. KAVEEELDAEDRPAWNSPLQYILA  3.77
167. KAVEEELDAEDRPAWNSKAQYILA  3.8
168. KAVEEELDAEDRPAGNSKLQYILA  3.82
169. KAVEEELDAEDTPAWNSKLQYILA  3.82
170. KAVEEELDAEDRPAWNSKTQYILA  3.83
171. KAVEEELDAEDRPAANSKLQYILA  3.89
172. KAVEEELDAEDRPASNSKLQYILA  3.92
173. KAVEEELDAEDRPAWNSKQQYILA  3.92
174. KAVEEELDAEDRPADNSKLQYILA  3.94
175. KAVEEELDAEDEPAWNSKLQYILA  3.95
176. KAVEEELDAEDRPAKNSKLQYILA  3.99
177. KAVEEELDAEDRPAWNSKKQYILA  3.99
178. KAVEEELDAEDRPAWNSDLQYILA  4
179. KAVEEELDAEDRPAWNSNLQYILA  4.01
180. KAVEEELDAEDRPAQNSKLQYILA  4.04
181. KAVEEELDAEDRPAHNSKLQYILA  4.06
182. KAVEEELDAEDRPSWNSKLQYILA  4.07
183. KAVEEELDAEDRPAWNSKDQYILA  4.1
184. KAVEEELDAEDRPANNSKLQYILA  4.13
185. KAVEEELDAEDRPAWNSKNQYILA  4.2
186. KAVEEELDAEDRPAWNSKEQYILA  4.27
187. KAVEEELDAEDRPAWNEKLQYILA  4.48
188. KAVEEELDAEDRPAENSKLQYILA  4.65

Reference: the supplement of paper PMC10567573
